The source of these data is article PMC5343618.

“And” between values parts separate entries of the source, which are not always exact repeats. Equal entries are not always repeated.

For assay [1], the target named is RDPE variant I103A (Ruminococcus sp. 5_1_39BFAA). The experiment in a line: native gel or EMSA; blue native PAGE (BN-PAGE) of the soluble cytoplasmic fraction and the culture supernatant of B. subtilis after 24 h of cultivation; non-reducing sample buffer, Coomassie blue; mass estimated within ±15%.
Assay [2] deals with RDPE variant V182A (Ruminococcus sp. 5_1_39BFAA). The assay is described as above.
For assay [3], the target named is full-length RDPE fused to mCherry (RDPE-mCh) (Ruminococcus sp. 5_1_39BFAA). The description is as above.
Assay [4] has as its target RDPE derivative with a C-terminal 6-His tag (RDPE-H) (Ruminococcus sp. 5_1_39BFAA). The experiment in a line: cross-linking; in vivo cross-linking of B. subtilis cells with 0.5 mM DSS in PBS pH 8.3, 20 min at 37 °C; cells recovered 1 h in fresh medium; 10% SDS-PAGE with β-mercaptoethanol and anti-His immunoblot of cell and supernatant fractions.
Assay [5] addresses RDPE variant V175A (Ruminococcus sp. 5_1_39BFAA). The experiment in a line: native gel or EMSA; blue native PAGE (BN-PAGE) of the soluble cytoplasmic fraction and the culture supernatant of B. subtilis after 24 h of cultivation; non-reducing sample buffer, Coomassie blue; mass estimated within ±15%.
For assay [6], the target named is RDPE variant L184A (Ruminococcus sp. 5_1_39BFAA). Described as above.
The target of assay [7] is RDPE truncated by a single amino acid from the N-terminus (ΔN1) (Ruminococcus sp. 5_1_39BFAA). Described as above.
In assay [8] the target is RDPE variant V180A (Ruminococcus sp. 5_1_39BFAA). The description is as above.
For assay [9], the target named is RDPE variant 100A (Leu100 to alanine) (Ruminococcus sp. 5_1_39BFAA). Described as above.
In assay [10] the target is D-psicose 3-epimerase from Ruminococcus sp. 5_1_39BFAA (RDPE) (Ruminococcus sp. 5_1_39BFAA). The experiment in a line: native gel or EMSA; soluble protein fractions combined with SDS at 0, 0.5%, 1% and 2% and run on a 10% acrylamide native gel.
Assay [11] shares this target. The experiment in a line: native gel or EMSA; blue native PAGE (BN-PAGE) of the soluble cytoplasmic fraction and the culture supernatant of B. subtilis after 24 h of cultivation; non-reducing sample buffer, Coomassie blue; mass estimated within ±15%.
Assay [12] has as its target RDPE variant V106A (Ruminococcus sp. 5_1_39BFAA). Described as above.
For assay [13], the target named is RDPE variant D102A (Ruminococcus sp. 5_1_39BFAA). The description is as above.
The target of assay [14] is RDPE variant G181A (Ruminococcus sp. 5_1_39BFAA). The description is as above.
In assay [15] the target is RDPE variant G107A (Ruminococcus sp. 5_1_39BFAA). Described as above.

RDPE variant I103A (enzyme): the stoichiometry N in assay [1] is 4.

Regarding RDPE variant V182A (enzyme), in assay [2], the stoichiometry N was 4.

Turning to “full-length RDPE fused to mCherry (RDPE-mCh) (enzyme)”, in [3], the stoichiometry N is 4.

With “RDPE derivative with a C-terminal 6-His tag (RDPE-H) (enzyme)”, in [4], the stoichiometry N worked out at 4.

As for RDPE variant V175A (enzyme), in [5], the stoichiometry N is 4.

For the substance RDPE variant L184A (enzyme), the stoichiometry N in assay [6] is 4.

As for “RDPE truncated by a single amino acid from the N-terminus (ΔN1) (enzyme)”, in assay [7], the stoichiometry N was 4.

As for RDPE variant V180A (enzyme), the stoichiometry N in [8] is 4.

Consider “RDPE variant 100A (Leu100 to alanine) (enzyme)”, for which the stoichiometry N in assay [9] is 4.

Regarding “D-psicose 3-epimerase from Ruminococcus sp. 5_1_39BFAA (RDPE) (enzyme)”, the stoichiometry N in assay [10] is 3 and 2; in [11], 4.

As to RDPE variant V106A (enzyme), the stoichiometry N in [12] was 4.

Regarding RDPE variant D102A (enzyme), the stoichiometry N in [13] is 4.

Consider RDPE variant G181A (enzyme), for which the stoichiometry N in assay [14] was 4.

For the substance RDPE variant G107A (enzyme), the stoichiometry N in assay [15] was 4.
